For the series, the target named is T1, Loqs-PD 1,2-mut (Drosophila melanogaster, UniProt Q9VJY9-4 1-359, K189A;K190A;K301A;K302A).
T1 sequence: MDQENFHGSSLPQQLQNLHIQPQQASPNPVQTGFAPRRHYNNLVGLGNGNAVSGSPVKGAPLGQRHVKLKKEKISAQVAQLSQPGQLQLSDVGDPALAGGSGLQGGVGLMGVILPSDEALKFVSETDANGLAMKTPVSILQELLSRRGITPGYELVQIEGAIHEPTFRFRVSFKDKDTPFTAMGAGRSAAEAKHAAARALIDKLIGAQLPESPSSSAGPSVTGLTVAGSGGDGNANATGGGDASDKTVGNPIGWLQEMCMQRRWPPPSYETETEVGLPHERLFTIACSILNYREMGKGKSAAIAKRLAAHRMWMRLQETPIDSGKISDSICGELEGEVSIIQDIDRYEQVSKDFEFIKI
Put plainly: EMSA; 400 nM RNA, 400-3200 nM protein; EMSA: 20 mM sodium phosphate pH 6.5, 150 mM NaCl, 15% glycerol, 15 min, 1% agarose 1x TBE; NMR: 20 mM sodium phosphate pH 6.5, PS-I or PS-II buffer (50-500 mM NaCl), 292 K for Loqs-PD deltaC. As to conditions: protein: recombinant; tags: His6-GB1 or His6 tag, cleaved by TEV; label: 3' Cy5; hairpin, 21 bp stem, GUGA loop. (In EMSA bound probe runs differently from free probe, usually more slowly.)

For the molecule GGAGCUUUCAAAAUGAUCUCCGUGAGGAGAUCAUUUUGAAAGCUCC (structured_RNA, 3' pCp-Cy5 ligated (adds one C)) [21 bp hairpin dsRNA, Cy5], the binding result is listed as “no binding”.

The record behind these values is PMC12276012, “Molecular mechanisms of biomolecular condensate formation in Drosophila melanogaster siRNA biogenesis”.
